Results: the supplement of paper PMC10567573

B1: KLHDC10 (parent)
chain: PSLLELAWEKLLAAFPNLANLSRT
B2: RHOBTB3 (parent)
chain: VSHVFMLLFNVKSPTDIQDSSIIR

Variants of: B1
Assay: protein stability index of a GFP-peptide fusion (GPS, HEK-293T) (PSI 1-6); higher = more stable
Details: c terminus: a fixed tail appended
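Also: lentivirally expressed fusions sorted by FACS into six bins by GFP to DsRed ratio, PSI derived from sequencing read proportions per bin multiplied by bin number.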

Row | Variant | protein stability index
1 | E9K | 1.97
2 | E9T | 2.39
3 | E9S | 2.35
4 | E9D | 2.22
5 | E9V | 1.72
6 | E9N | 2.62
7 | E9C | 1.5
8 | E9Q | 2.34
9 | E9M | 1.61
10 | E9F | 1.44
11 | E9G | 2
12 | E9Y | 1.59
13 | E9I | 2.07
14 | E9R | 2.37
15 | E9W | 1.14
16 | E9P | 2
17 | E9H | 1.93
18 | E9A | 1.84
19 | E9L | 2.29
20 | A7D | 2.14
21 | A7R | 2.35
22 | A7V | 2.22
23 | A7K | 2.73
24 | A7Y | 2.08

Row | Variant | protein stability index
25 | A7S | 2.58
26 | A7G | 1.96
27 | A7M | 2.33
28 | A7I | 1.97
29 | A7H | 1.33
30 | A7P | 1.77
31 | A7Q | 2.29
32 | A7T | 1.28
33 | A7N | 2.28
34 | A7W | 1.84
35 | A7C | 2.23
36 | A7L | 2.29
37 | A7E | 2.74
38 | A7F | 1.86
39 | K10N | 1.48
40 | K10A | 1.84
41 | K10M | 2
42 | K10Q | 1.95
43 | K10E | 1.57
44 | K10T | 1.69
45 | K10D | 1.84
46 | K10I | 1.7
47 | K10R | 1.9
48 | K10V | 2.07

Row | Variant | protein stability index
49 | K10S | 1.72
50 | K10F | 2.25
51 | K10H | 2.09
52 | K10P | 1.64
53 | K10Y | 1.75
54 | K10W | 2.53
55 | K10G | 1.93
56 | K10C | 1.63
57 | K10L | 2.42
58 | L3V | 1.73
59 | L3E | 1.83
60 | L3P | 1.72
61 | L3F | 2.22
62 | L3K | 2.33
63 | L3H | 1.75
64 | L3R | 2.06
65 | L3D | 2.16
66 | L3S | 1.7
67 | L3M | 1.65
68 | L3G | 1.56
69 | L3N | 1.63
70 | L3C | 1.85
71 | L3A | 2.24
72 | L3T | 1.97

Row | Variant | protein stability index
73 | L3W | 1.9
74 | L3I | 1.56
75 | L3Q | 2.29
76 | L3Y | 1.86
77 | E5G | 2.42
78 | E5R | 2.29
79 | E5F | 2.06
80 | E5D | 2.88
81 | E5P | 1.34
82 | E5K | 2.28
83 | E5S | 3.15
84 | E5N | 2.72
85 | E5W | 1.93
86 | E5V | 1.71
87 | E5A | 2.28
88 | E5I | 1.8
89 | E5T | 2.31
90 | E5Q | 2.49
91 | E5C | 1.97
92 | E5Y | 2.47
93 | E5L | 2.19
94 | E5H | 2.39
95 | E5M | 2.04
96 | L11G | 1.69

Row | Variant | protein stability index
97 | L11A | 2.36
98 | L11W | 2.06
99 | L11N | 2.26
100 | L11S | 2.2
101 | L11T | 1.92
102 | L11Q | 2.19
103 | L11E | 2.55
104 | L11K | 1.62
105 | L11H | 1.92
106 | L11F | 2.29
107 | L11Y | 2.19
108 | L11V | 2.5
109 | L11P | 2.39
110 | L11D | 2.14
111 | L11I | 2.23
112 | L11R | 2.07
113 | L11M | 1.6
114 | L11C | 1.88
115 | A14Q | 2.05
116 | A14H | 2.15
117 | A14N | 2.2
118 | A14M | 2.19
119 | A14K | 2.1
120 | A14G | 1.81

Row | Variant | protein stability index
121 | A14F | 2.82
122 | A14I | 2.83
123 | A14P | 2.07
124 | A14E | 2.11
125 | A14D | 2.19
126 | A14S | 2.86
127 | A14R | 1.87
128 | A14C | 2.58
129 | A14L | 2.75
130 | L6D | 2.2
131 | L6K | 3.43
132 | L6P | 1.86
133 | L6W | 3.58
134 | L6F | 2.01
135 | L6R | 1.72
136 | L6Y | 1.95
137 | L6M | 2.47
138 | L6S | 2.28
139 | L6V | 2.33
140 | L6N | 2.09
141 | L6T | 2.23
142 | L6I | 2.06
143 | L6G | 1.64
144 | L6C | 1.92

Row | Variant | protein stability index
145 | L6H | 1.59
146 | L6E | 1.81
147 | L6Q | 2
148 | L6A | 1.94
149 | S2C | 1.34
150 | S2T | 1.96
151 | S2F | 2.41
152 | S2V | 1.86
153 | S2L | 2.19
154 | S2N | 1.77
155 | S2H | 1.78
156 | S2I | 1.17
157 | S2Q | 1.79
158 | S2R | 1.82
159 | S2A | 2.09
160 | S2K | 2.17
161 | S2Y | 2.36
162 | S2G | 1.72
163 | S2P | 2.25
164 | S2M | 1.61
165 | S2D | 2.67
166 | S2W | 1.94
167 | S2E | 2.03
168 | W8N | 2.37

Row | Variant | protein stability index
169 | W8Q | 2.88
170 | W8I | 1.87
171 | W8C | 1.85
172 | W8H | 2.54
173 | W8T | 1.94
174 | W8M | 1.95
175 | W8R | 2.52
176 | W8P | 3.21
177 | W8Y | 2.04
178 | W8A | 1.77
179 | W8S | 2.24
180 | W8F | 2.56
181 | W8G | 2.78
182 | W8L | 1.58
183 | W8D | 2.37
184 | W8K | 2.61
185 | W8V | 2.19
186 | W8E | 2.97
187 | P1Q | 2.21
188 | P1M | 1.94
189 | P1T | 1.85
190 | P1W | 1.8
191 | P1V | 2
192 | P1I | 1.92

Row | Variant | protein stability index
193 | P1H | 2.21
194 | P1K | 2.79
195 | P1F | 2.52
196 | P1S | 1.85
197 | P1R | 2.12
198 | P1Y | 1.67
199 | P1D | 2.06
200 | P1L | 2.23
201 | P1C | 1.86
202 | P1N | 2.17
203 | P1A | 2.42
204 | P1E | 3.28
205 | L12S | 1.9
206 | L12G | 2.66
207 | L12N | 2.32
208 | L12F | 2.3
209 | L12V | 2.44
210 | L12R | 1.88
211 | L12K | 3.22
212 | L12Q | 2.23
213 | L12T | 2.37
214 | L12W | 1.71
215 | L12Y | 1.76
216 | L12D | 3.04

Row | Variant | protein stability index
217 | L12I | 2.12
218 | L12M | 1.85
219 | L12C | 1.83
220 | L12E | 2.66
221 | L12P | 2.17
222 | L12H | 2.33
223 | L12A | 2.52
224 | L4C | 3.05
225 | L4S | 3.52
226 | L4H | 2.88
227 | L4R | 3.93
228 | L4I | 2.01
229 | L4N | 2.83
230 | L4Q | 3.05
231 | L4M | 2.47
232 | L4V | 2.26
233 | L4K | 3.92
234 | L4F | 2.75
235 | L4P | 1.83
236 | L4W | 2.53
237 | L4Y | 2.06
238 | L4G | 2.58
239 | L4T | 3.05
240 | L4A | 3.11

Row | Variant | protein stability index
241 | L4D | 2.07
242 | L4E | 2.1
243 | A13C | 2.01
244 | A13V | 1.79
245 | A13E | 1.99
246 | A13Q | 2.25
247 | A13S | 2.28
248 | A13D | 2.12
249 | A13N | 2.04
250 | A13G | 2.06
251 | A13W | 1.64
252 | A13F | 1.46
253 | A13L | 1.74
254 | A13Y | 1.85
255 | A13R | 1.8
256 | A13K | 1.95
257 | A13P | 1.86
258 | A13I | 2.46
259 | A13M | 2.51
260 | A13T | 2.2
261 | A13H | 2.83

Variants of: B2
Assay: as above
Details: c terminus: a fixed tail appended

Row | Variant | protein stability index
262 | I22Y | 2.62
263 | I22Q | 2.63
264 | I22V | 3.37
265 | I22W | 2.17
266 | I22C | 2.08
267 | I22F | 2.15
268 | I22R | 1.6
269 | I22N | 1.66
270 | I22D | 2.8
271 | I22L | 2.98
272 | I22P | 3.69
273 | I22T | 2.35
274 | R24H | 3.13
275 | R24K | 3.56
276 | R24W | 4.43
277 | R24S | 3.05
278 | R24F | 1.82
279 | R24Y | 2.58
280 | R24Q | 4.67
281 | R24G | 3.07
282 | R24T | 3.31
283 | R24V | 3.67
284 | R24E | 2.74
285 | R24N | 3.13
286 | R24L | 2.66

Row | Variant | protein stability index
287 | S21Y | 3.45
288 | S21C | 3.76
289 | S21Q | 4.13
290 | S21I | 2.74
291 | S21W | 3.54
292 | S21V | 2.27
293 | S21K | 1.84
294 | S21G | 3.46
295 | S21F | 3.07
296 | S21T | 3.42
297 | S21H | 2.35
298 | S21M | 2.9
299 | D19S | 2.93
300 | D19P | 2.41
301 | D19Q | 2.96
302 | D19R | 3.06
303 | D19T | 3.05
304 | I23N | 4.01
305 | I23K | 1.4
306 | I23Q | 2.79
307 | I23W | 2.86
308 | I23S | 2.33
309 | I23A | 4.9
310 | I23E | 1.89
311 | I23G | 2.5

Row | Variant | protein stability index
312 | I23R | 2.85
313 | I23F | 4.66
314 | I23Y | 3.9
315 | I23T | 2.43
316 | I23D | 2.83
317 | I23L | 5.03
318 | I23V | 2.75
319 | I23M | 4.19
320 | I23P | 1.33
321 | I23H | 2.28
322 | S20P | 3.04
323 | S20Q | 3.34
324 | S20K | 1.33
325 | S20W | 3.16
326 | S20R | 1.66
327 | S20I | 2.98
328 | S20H | 2.49
329 | S20M | 3.1
330 | S20Y | 2.66
331 | S20A | 2.66
332 | S20F | 2.79
333 | S20T | 2.05
334 | S20D | 2.91
